{"source": "patent US20190030156A1", "about": "(TECHNOVAX, published 2019)", "target": "RSV fusion glycoprotein (F) of RSV A2 strain virus (human respiratory syncytial virus A2 …, UniProt P03420 26-574)", "sequence (P03420 26-574)": "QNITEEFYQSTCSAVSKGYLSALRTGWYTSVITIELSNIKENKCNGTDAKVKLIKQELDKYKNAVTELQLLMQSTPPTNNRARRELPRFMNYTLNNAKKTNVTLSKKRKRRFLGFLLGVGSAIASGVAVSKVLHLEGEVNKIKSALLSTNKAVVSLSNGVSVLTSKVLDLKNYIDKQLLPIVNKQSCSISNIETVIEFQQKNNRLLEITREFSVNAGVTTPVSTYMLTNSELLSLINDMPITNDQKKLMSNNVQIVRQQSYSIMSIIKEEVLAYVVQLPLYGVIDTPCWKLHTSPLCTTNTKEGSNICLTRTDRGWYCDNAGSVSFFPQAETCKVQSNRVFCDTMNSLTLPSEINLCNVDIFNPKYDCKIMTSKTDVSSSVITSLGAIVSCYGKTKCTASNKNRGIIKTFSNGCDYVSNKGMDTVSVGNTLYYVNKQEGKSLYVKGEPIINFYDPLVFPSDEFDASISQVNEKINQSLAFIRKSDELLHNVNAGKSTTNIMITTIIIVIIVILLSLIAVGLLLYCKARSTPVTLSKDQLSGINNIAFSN", "assay": "cell-based or functional assay", "data": [{"binder": "Palivizumab (Synagis, MedImmune) (antibody, V domains shown) VH: QVTLRESGPALVKPTQTLTLTCTFSGFSLSTSGMSVGWIRQPPGKALEWLADIWWDDKKDYNPSLKSRLTISKDTSKNQVVLKVTNMDPADTATYYCARSMITNWYFDVWGAGTTVTVSS VL: DIQMTQSPSTLSASVGDRVTITCKCQLSVGYMHWYQQKPGKAPKLLIYDTSKLASGVPSRFSGSGSGTEFTLTISSLQPDDFATYYCFQGSGYPFTFGGGTKLEIK", "values": [{"measurement": "IC50 neutralizing activity (plaque reduction neutralization test, RSV A2 on HEp-2 cells)", "value": 2, "unit": "µg/mL"}]}]}
